Measured values reported in patent US20090305982A1.

Columns and labels:
[1] = molecular target: cynomolgus IL-4 receptor alpha on peripheral blood lymphocytes (cynomolgus); assay: flow cytometry, cynomolgus peripheral blood lymphocytes, 10 µg/ml
[2] = molecular target: human IL-4 receptor alpha on cells (peripheral blood lymphocytes, primary B cells, TF-1, A549, PBMC) (human) (UniProt P24394); assay: cell-based or functional assay
[3] = molecular target: human IL-4 receptor alpha on cells (peripheral blood lymphocytes, primary B cells, TF-1, A549, PBMC) (human) (UniProt P24394); assay: flow cytometry, human peripheral blood lymphocytes, 10 µg/ml

- % Positive [1]: 5%
- MFI [1]: 1.9
- % Positive for STAT-6 phosphorylation, TF-1 cells + IL-4 [2]: 72%
- % Positive for STAT-6 phosphorylation, TF-1 cells + IL-13 [2]: 84%
- MFI, STAT-6 phosphorylation, TF-1 cells + IL-4 [2]: 13.1
- MFI, STAT-6 phosphorylation, TF-1 cells + IL-13 [2]: 18.6
- % Positive [3]: 9%
- MFI [3]: 3.2
Substance: wildtype tear lipocalin (gene product of pTLPC10) (from UniProt P31025 23-175)
